For orientation: Kd means the constant that tells how readily two partners part at equilibrium.

Among the data in publication PMC5951847, “Substrate sequence selectivity of APOBEC3A implicates intra-DNA interactions” are Kd values, retold here.

The target of data set [1] is T1, A3A(E72A) (Homo sapiens, UniProt P31941 1-199, E72A). As to the kind of experiment: fluorescence anisotropy; pH 5.5; 50 mM MES pH 6.0, 100 mM NaCl, 0.5 mM TCEP, room temperature overnight, 10 nM TAMRA-oligo; competition with 300 nM A3A(E72A); pH series: acetate 4.0-5.0, MES 5.5-6.5, HEPES 7.0-8.0, Tris 8.5-9.0. The following applies: protein: recombinant; tags: His6-SUMO removed by Ulp1 (untagged); label: 5' TAMRA.
T1 sequence (P31941 whole entry E72A): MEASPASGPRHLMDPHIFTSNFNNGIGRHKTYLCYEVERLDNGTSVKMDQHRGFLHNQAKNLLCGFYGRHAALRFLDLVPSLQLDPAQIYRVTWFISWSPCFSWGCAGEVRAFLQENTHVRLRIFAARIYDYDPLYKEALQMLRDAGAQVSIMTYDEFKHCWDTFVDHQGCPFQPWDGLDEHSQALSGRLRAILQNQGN

In data set [2] the target is T1, A3A(E72A). Nature of the data set: fluorescence anisotropy; pH 6.0; 50 mM MES pH 6.0, 100 mM NaCl, 0.5 mM TCEP, room temperature overnight, 10 nM TAMRA-oligo; competition with 300 nM A3A(E72A); pH series: acetate 4.0-5.0, MES 5.5-6.5, HEPES 7.0-8.0, Tris 8.5-9.0. The following applies: protein: recombinant; tags: His6-SUMO removed by Ulp1 (untagged); label: 5' TAMRA; hairpin. Background: Fluorescence polarisation rises when a labelled molecule tumbles more slowly, as on binding a larger partner.

Consider AAAATTCAAAAAA (ssDNA) [Poly A-TTC (pH series, 4A-TTC-6A)], for which, in the data set with A3A(E72A) [1], the Kd turned out to be 68 ± 3 nM.
With GCCATCAAAAGATGGG (structured_DNA) [Hairpin-AAA], the Kd in the data set with A3A(E72A) [2] worked out at 676 ± 399 nM.
